Experimental data as given in US20250064979A1.

Target: Gag-P3-pol (P3 coiled-coil peptide fused to MMLV Gag-pol) (Moloney murine leukemia virus) (UniProt P03332)
Assay: cell-based or functional assay

Substance: Gag-PE fusion with P4 peptide fused to its C-terminus (construct 1 of FIG. 44A) (from UniProt P03332 1-538)
- editing efficiency of PE VLPs: 2 fold
